# Measurements as given in patent publication US6492116, “Assay for identifying inhibitors of the interaction between proteins p53 and dm2” (Cancer Research Campain Technology Ltd.).
# B1: p53 consensus site oligonucleotide I/II (dsDNA)
# DNA 1: AGCTTAGACATGCCTAGACATGCCTA
# DNA 2: AGCTTAGGCATGTCTAGGCATGTCTA
# Target: p53D30 (human p53 residues 1-362) (Homo sapiens, UniProt P04637 SEQ:1-362)
# Assay: EMSA; 50 mM Tris-HCl, 50 mM NaCl, 5% glycerol, 0.1% Triton X-100, 10 mM DTT, 50 ug/ml poly(dI-dC), pH 7.6, 22 C; monoclonal antibodies included as mentioned; gel result not shown in the text
# Conditions: chain copies: 4; label: 33P 5' end; HindIII-compatible 5' overhangs
# Procedure: A 20 μl reaction volume containing 50 mM Tris. HCI, 50 mM NaCI, 5% (v/v) glycerol, 0.1% (v/v) Triton X-100, 10 mM DTT and 50 μg/ml polydeoxyinosinic-deoxycytidylic acid–pH=7.6 (binding buffer) are incubated for 30 min at 22° C. in the presence of the indicated amounts of p53D30, of radiolabelled oligonucleotides and of the mentioned monoclonal antibodies. Reactions are loaded onto a native 4% polyacrylamide gel containing 0.5×Tris.HCI–boric acid–pH=8.0 which had undergone pre-electrophoresis at 200 V for 45 min at 4 ° C. Electrophoresis is continued at 200 V from 90 to 120 min at 4° C. Gels are dried prior exposure to X-ray film (Amersham Hyperfilm-MP).
# p53D30 (human p53 residues 1-362), sequence (P04637 1-362): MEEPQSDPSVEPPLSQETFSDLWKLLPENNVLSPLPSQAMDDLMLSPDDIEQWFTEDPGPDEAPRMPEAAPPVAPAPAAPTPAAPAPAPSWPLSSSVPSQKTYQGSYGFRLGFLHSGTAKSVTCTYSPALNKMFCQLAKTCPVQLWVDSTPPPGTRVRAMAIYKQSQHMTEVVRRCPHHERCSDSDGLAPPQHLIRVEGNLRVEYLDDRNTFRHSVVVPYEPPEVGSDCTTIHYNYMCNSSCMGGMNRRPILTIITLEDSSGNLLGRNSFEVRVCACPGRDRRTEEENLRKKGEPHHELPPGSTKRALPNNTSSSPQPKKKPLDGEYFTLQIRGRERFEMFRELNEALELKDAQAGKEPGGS
binder,measurement,value
B1,binding result,binds
